Earlier results as cited in PMC7801465.

Biological target: SARS-CoV-2 spike (SARS-CoV-2) (UniProt P0DTC2)

In the case of Basigin (from UniProt P35613), the Kd is listed as 185 nM.
